Source: US20260167737A1 (BIGHAT BIOSCIENCES, published 2026)

T1: CDH17 (UniProt Q12864 23-787, limits assumed)
T1 construct: also called cadherin 17
T1 sequence (looked up): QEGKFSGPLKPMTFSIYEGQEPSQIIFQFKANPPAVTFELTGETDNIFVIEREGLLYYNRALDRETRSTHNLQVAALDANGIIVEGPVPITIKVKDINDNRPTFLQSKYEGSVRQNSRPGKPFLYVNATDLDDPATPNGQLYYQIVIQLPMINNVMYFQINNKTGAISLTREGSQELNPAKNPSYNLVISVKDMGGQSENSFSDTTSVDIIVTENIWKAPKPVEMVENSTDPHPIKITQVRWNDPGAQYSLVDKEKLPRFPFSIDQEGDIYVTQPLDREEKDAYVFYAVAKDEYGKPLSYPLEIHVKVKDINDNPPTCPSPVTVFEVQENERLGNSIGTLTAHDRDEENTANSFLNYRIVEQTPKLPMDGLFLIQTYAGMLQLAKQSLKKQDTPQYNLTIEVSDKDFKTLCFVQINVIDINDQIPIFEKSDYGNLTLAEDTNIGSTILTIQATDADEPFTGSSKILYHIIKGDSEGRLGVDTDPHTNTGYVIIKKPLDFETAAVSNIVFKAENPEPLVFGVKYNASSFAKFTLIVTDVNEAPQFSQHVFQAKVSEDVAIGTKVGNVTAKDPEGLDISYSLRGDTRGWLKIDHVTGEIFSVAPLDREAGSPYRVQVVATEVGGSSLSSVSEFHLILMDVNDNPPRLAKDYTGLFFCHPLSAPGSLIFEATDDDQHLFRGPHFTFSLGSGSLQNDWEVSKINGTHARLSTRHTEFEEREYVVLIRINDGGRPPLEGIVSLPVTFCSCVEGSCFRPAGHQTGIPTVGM


Columns and labels:
CDH17 [1] = biological target: T1, CDH17
CDH17 on SNU16 cells = CDH17 on SNU16 cells (UniProt Q12864)
CDH17 [2] = biological target: T1, CDH17; test: method not stated; KD at pH 7.4

Molecule	Kd (CDH17 [2])	other results
isotype vedotin (Fc fusion)		cytotoxicity IC50 of the negative control (no asterisk: isotype control vedotin ADC), AsPC1 (PDAC) cells (CDH17 [1]): > 100 nM; cytotoxicity IC50 of the negative control (no asterisk: isotype control vedotin ADC), CAPAN2 (PDAC) cells (ABC <LLOD) (CDH17 [1]): > 100 nM; cytotoxicity IC50 of the negative control (no asterisk: isotype control vedotin ADC), LoVo (CRC) cells (ABC <LLOD) (CDH17 [1]): > 100 nM; cytotoxicity IC50 of the negative control (no asterisk: isotype control vedotin ADC), NCI-H508 (CRC) cells (CDH17 [1]): 0.301 nM; cytotoxicity IC50 of the negative control (no asterisk: isotype control vedotin ADC), SW403 (CRC) cells (CDH17 [1]): > 100 nM; cytotoxicity IC50 of the negative control (no asterisk: isotype control vedotin ADC), SW837 (CRC) cells (ABC <LLOD) (CDH17 [1]): > 100 nM; cytotoxicity IC50 of the negative control (no asterisk: isotype control vedotin ADC), SNU16 (gastric) cells (CDH17 on SNU16 cells): > 100 nM
CDH17_vhh_0688 (VHH) VHH: QVQLQESGGGLVQPGGSTRLSCVSSRTFSYYDMGWFRQAPGKEREFVALLSWRGNNAEYSDDVMGRFTVSRGNTQNSVNLQMNNLKPEDTGIYYCAVTYGNARSVRSWGQGTQVTVSS	5.43 nM	
CDH17_vhh_0951 (VHH) VHH: QVQLQESGGGLVQPGGSTRLSCVSSRTFSYYDMGWFRQAPGKEREFVALLSWRGNNAEYSDDVMGRFTVSRGNTQNSVNLQMNNLKPEDTGIYYCAVTYGTARSVRLWGQGTQVTVSS	1.81 nM	
CDH17_vhh_0946 (VHH) VHH: QVQLQESGGGLVQPGGSTRLSCVSSRTFSYYDMGWFRQAPGKEREFVALLSWRGNNAEYSDFVMGRFTVSRGNTQNSVNLQMNNLKPEDTGIYYCAVTYGVARSVRLWGQGTQVTVSS	2.04 nM	
CDH17_vhh_0949 (VHH) VHH: QVQLQESGGGLVQPGGSTRLSCVSSRTFSYYDMGWFRQAPGKEREFVALLSWRGNNAEYSDDVMGRFTVSRGNTQNSVNLQMNNLKPEDTGIYYCAVTYGKARSVRLWGQGTQVTVSS	2.01 nM	
CDH17_vhh_0945 (VHH) VHH: QVQLQESGGGLVQPGGSTRLSCVSSRTFSYYDMGWFRQAPGKEREFVALLSWRGNNAEYSDSVHGRFTVSRGNTQNSVNLQMNNLKPEDTGIYYCAVTYGVARSVRLWGQGTQVTVSS	2.15 nM	
CDH17_vhh_0689 (VHH) VHH: QVQLQESGGGLVQPGGSTRLSCVSSRTFSYYDMGWFRQAPGKEREFVALLSWRGNNAEYSDFVMGRFTVSRGNTQNSVNLQMNNLKPEDTGIYYCAVTYGGARSVRLWGQGTQVTVSS	4.83 nM	
CDH17_vhh_0950 (VHH) VHH: QVQLQESGGGLVQPGGSTRLSCVSSRTFSYYDMGWFRQAPGKEREFVALLSWRGNNSEYSDSVHGRFTVSRGNTQNSVNLQMNNLKPEDTGIYYCAVTYGGARSVRLWGQGTQVTVSS	3.81 nM	
CDH17_vhh_0948 (VHH) VHH: QVQLQESGGGLVQPGGSTRLSCVSSRTFSYYDMGWFRQAPGKEREFVALLSWRGNNAEYSDDVHGRFTVSRGNTQNSVNLQMNNLKPEDTGIYYCAVTYGGARSVRLWGQGTQVTVSS	3.94 nM	
CDH17_vhh_0952 (VHH) VHH: QVQLQESGGGLVQPGGSTRLSCVSSRTFSYYDMGWFRQAPGKEREFVALLSWRGNNAEYSDDVMGRFTVSRGNTQNSVNLQMNNLKPEDTGIYYCAVTYGNARSVRLWGQGTQVTVSS	2.61 nM	
